Here are results for 120 sequences from the supplement of paper PMC10126150.

± gives the standard deviation of the averaged measurements.

The test system of the data set is ATP. Nature of the data set: switch fluorescence ratio, 500 uM ATP over buffer (Cy3 cluster intensity, sum of 5 cycles each) (fold (ratio)); higher = stronger signal-on switching upon ATP binding; sequences stand for … in TCGTCGGCAGCGTCAGATGTGTATAAGAGACAGTTTTTTTTTTTTTTTTTTTTTTTTT…TC. The conditions noted are these: aptamer strand: ATP DNA aptamer (quencher-CACCTGGGGGAGTATTGCGGAGGAAGG + anchor), 100 nM annealed; ATP concentration: 500 uM. An outline of the steps: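 Cy3-labelled switching-strand clusters on a modified Illumina MiSeq flow-cell were annealed to 100 nM quencher-labelled ATP aptamer, imaged in selection buffer, then imaged after 15 min with 500 uM ATP at 22 °C. Five buffer/ATP cycles ran, with NaOH stripping and re-annealing between them. The fluorescence ratio is summed target-cycle over summed buffer-cycle Cy3 intensity per cluster, averaged per switch-domain sequence. Clusters outside 100-1000 RFU were excluded.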
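Further: ATP exposure 15 min at 22 °C before imaging.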

Regarding TGGGTCTTGA, the switch fluorescence ratio amounted to 1.001 ± 0.0062. TGGGTGAAAG: the switch fluorescence ratio is 1.02 ± 0.02. For the sequence TGGGTGAGGA, the switch fluorescence ratio was 1.04 ± 0.054.

With TGGGTGATTA, the switch fluorescence ratio came to 0.9846 ± 0.005. Take TGGGTGCGTC: the switch fluorescence ratio was determined as 0.988 ± 0.014. As for TGGGTGGAAG, the figure is 1.042 ± 0.01; as for TGGGTGGATC, 1.02 ± 0.056; as for TGGGTGTATC, 1.004 ± 0.0022. With TGGGTGTGG, the switch fluorescence ratio amounted to 1.015 ± 0.0075. As for TGGGTGTTGT, the switch fluorescence ratio stood at 1.01 ± 0.034. Consider TGGGTTATTA, for which the switch fluorescence ratio stood at 1 ± 0.018. Turning to TGGGTTCAGC, the switch fluorescence ratio came to 1 ± 0.011. Turning to TGGGTTCTGT, the switch fluorescence ratio was 0.974 ± 0.0099. For TGGGTTGCGT, the switch fluorescence ratio is 1.01 ± 0.017. As for TGGGTTGGAG, the figure is 0.9949 ± 0.0067; as for TGGGTTTATG, 1 ± 0.03. On to TGGGTTTGGA, for which the switch fluorescence ratio is 1.03 ± 0.049. In the case of TGGGTTTTGT, the switch fluorescence ratio turned out to be 1.01 ± 0.029. As to TGGTAAACGC, the switch fluorescence ratio amounted to 1.03 ± 0.05. In the case of TGGTAAAGGG, the switch fluorescence ratio worked out at 0.991 ± 0.034. For the sequence TGGTAATGGA, the switch fluorescence ratio came to 0.958 ± 0.046. Take TGGTAATGGT: the switch fluorescence ratio was found to be 1.03 ± 0.074.

Regarding TGGTAATTTT, the switch fluorescence ratio worked out at 0.998 ± 0.017. Take TGGTAGAAGT: the switch fluorescence ratio came out at 0.988 ± 0.022. TGGTAGATGG: the switch fluorescence ratio is 1 ± 0.022.

Take TGGTAGGAGG: the switch fluorescence ratio is 1.002 ± 0.0056. Regarding TGGTAGGGGT, the switch fluorescence ratio was found to be 1 ± 0.014. With TGGTAGGTGA, the switch fluorescence ratio was determined as 0.997 ± 0.025. Consider TGGTATAGGC, for which the switch fluorescence ratio was determined as 1.04 ± 0.027. TGGTATCTTA: the switch fluorescence ratio came to 1.026 ± 0.0098. Consider TGGTATGGTA, for which the switch fluorescence ratio worked out at 0.9969 ± 0.0099. Turning to TGGTCCACTG, the switch fluorescence ratio was found to be 1.009 ± 0.0057. In the case of TGGTCGGTAG, the switch fluorescence ratio is 0.9855 ± 0.0023. Next, TGGTCTAGGA: 1.01 ± 0.011; TGGTCTTTTC: 0.986 ± 0.02; TGGTGAAACC: 1.013 ± 0.0035.

Turning to TGGTGAAAGC, the switch fluorescence ratio was 0.991 ± 0.022.

As to TGGTGATGCA, the switch fluorescence ratio is 1.08 ± 0.11. With TGGTGATGCG, the switch fluorescence ratio amounted to 0.998 ± 0.064. As for TGGTGATTGT, the figure is 1.02 ± 0.017. Next, TGGTGCATGC: 0.957 ± 0.019; TGGTGGAAAA: 0.973 ± 0.02; TGGTGGATCT: 0.9904 ± 0.0063. Take TGGTGGCGCG: the switch fluorescence ratio was found to be 0.976 ± 0.027. In the case of TGGTGGCGG, the switch fluorescence ratio is 0.952 ± 0.037.

TGGTGGCTTT: the switch fluorescence ratio came out at 0.996 ± 0.015.

For the sequence TGGTGGGACG, the switch fluorescence ratio was 1.06 ± 0.14. With TGGTGGGGG, the switch fluorescence ratio came out at 1.01 ± 0.051. For TGGTGGGTAC, the switch fluorescence ratio worked out at 1.03 ± 0.084. TGGTGGGTGG: the switch fluorescence ratio amounted to 1.03 ± 0.058. As to TGGTGGTGTC, the switch fluorescence ratio is 0.985 ± 0.05. Regarding TGGTGTATTT, the switch fluorescence ratio is 1.01 ± 0.011. Next, TGGTGTGATG: 1.007 ± 0.0026; TGGTGTGGGG: 0.993 ± 0.021; TGGTGTGGTT: 1.02 ± 0.021. In the case of TGGTGTGTCA, the switch fluorescence ratio worked out at 1.005 ± 0.0092.

As to TGGTTAAACT, the switch fluorescence ratio is 0.98 ± 0.027. For the sequence TGGTTAACGC, the switch fluorescence ratio was determined as 0.999 ± 0.013. Next, TGGTTACATC: 1.04 ± 0.015; TGGTTACCCC: 1.001 ± 0.01; TGGTTACGTC: 0.985 ± 0.026. As to TGGTTCAGCC, the switch fluorescence ratio was 0.9868 ± 0.0033. Consider TGGTTCATGT, for which the switch fluorescence ratio was 0.9939 ± 0.008. As for TGGTTCTATT, the switch fluorescence ratio was found to be 1.02 ± 0.064. TGGTTGAAAT: the switch fluorescence ratio worked out at 0.975 ± 0.028. On to TGGTTGCAGC, for which the switch fluorescence ratio is 1 ± 0.055.

As for TGGTTGCTAA, the switch fluorescence ratio was 1.01 ± 0.02. Regarding TGGTTGG, the switch fluorescence ratio is 0.994 ± 0.0015. In the case of TGGTTGGAGT, the switch fluorescence ratio amounted to 1.006 ± 0.0035. Next, TGGTTGGATC: 0.984 ± 0.019; TGGTTGGGCA: 0.993 ± 0.055. Turning to TGGTTGGGGG, the switch fluorescence ratio is 0.995 ± 0.024. Take TGGTTGGTGG: the switch fluorescence ratio was 1.05 ± 0.09. As for TGGTTGTCCG, the switch fluorescence ratio came out at 1.06 ± 0.059. For TGGTTTAGGC, the switch fluorescence ratio is 0.997 ± 0.011. Next, TGGTTTCCCG: 0.975 ± 0.044; TGGTTTGTTA: 1.02 ± 0.022; TGGTTTGTTG: 0.9686 ± 0.0064. Turning to TGGTTTTCAG, the switch fluorescence ratio is 0.997 ± 0.015. As for TGTAAAAAGG, the figure is 0.98 ± 0.025; as for TGTAAAATGT, 0.998 ± 0.029.

On to TGTAAACCGC, for which the switch fluorescence ratio amounted to 1.2 ± 0.16. Regarding TGTAAATGTT, the switch fluorescence ratio worked out at 1.03 ± 0.04.

On to TGTAACTGAG, for which the switch fluorescence ratio turned out to be 1.0374 ± 3e-05. TGTAAGGACT: the switch fluorescence ratio turned out to be 1.01 ± 0.038. As for TGTAAGGGGG, the figure is 0.989 ± 0.039; as for TGTAAGGGTT, 0.994 ± 0.027. On to TGTAATAGGG, for which the switch fluorescence ratio was 0.979 ± 0.013. Next, TGTAATCGTT: 0.964 ± 0.07; TGTAATTTGT: 1 ± 0.027. Turning to TGTACGATGC, the switch fluorescence ratio amounted to 1.12 ± 0.014. Turning to TGTACGGATT, the switch fluorescence ratio is 1.0016 ± 0.00058. TGTACGGGGG: the switch fluorescence ratio came to 0.949 ± 0.021.

Take TGTACTGGGC: the switch fluorescence ratio came out at 1.06 ± 0.049. Consider TGTAGATTGT, for which the switch fluorescence ratio was 1.01 ± 0.049.

Regarding TGTAGCATGT, the switch fluorescence ratio amounted to 2.08 ± 1.3. For the sequence TGTAGGGACG, the switch fluorescence ratio came out at 0.957 ± 0.12. In the case of TGTAGGGGGT, the switch fluorescence ratio came to 1.01 ± 0.041. Next, TGTAGTAAGT: 1.01 ± 0.06; TGTAGTACTG: 1.02 ± 0.043; TGTAGTCTGG: 0.969 ± 0.024. Turning to TGTAGTGAA, the switch fluorescence ratio stood at 1.1 ± 0.16. In the case of TGTATATAGG, the switch fluorescence ratio was determined as 0.955 ± 0.021.

Turning to TGTATCGGGT, the switch fluorescence ratio came out at 0.979 ± 0.035.

Turning to TGTATGC, the switch fluorescence ratio came out at 0.958 ± 0.051. Turning to TGTATGTGGG, the switch fluorescence ratio was determined as 0.999 ± 0.028. Turning to TGTATGTGGT, the switch fluorescence ratio amounted to 1 ± 0.048. Regarding TGTATTTTGG, the switch fluorescence ratio was 0.984 ± 0.029. TGTCACAGGG: the switch fluorescence ratio was 1.063 ± 0.007.

As for TGTCACCAGT, the switch fluorescence ratio was 1.02 ± 0.016.

TGTCACTGTT: the switch fluorescence ratio came out at 0.965 ± 0.022.

Consider TGTCAGAAGC, for which the switch fluorescence ratio stood at 0.994 ± 0.012.

For the sequence TGTCCGGTTT, the switch fluorescence ratio is 1.25 ± 0.36. In the case of TGTCGAGGGC, the switch fluorescence ratio was determined as 0.965 ± 0.021. Regarding TGTCGCGTAT, the switch fluorescence ratio was 0.992 ± 0.013. As to TGTCGGAGAT, the switch fluorescence ratio was found to be 0.987 ± 0.018. With TGTCGGATTA, the switch fluorescence ratio stood at 0.979 ± 0.011. For TGTCGGATTT, the switch fluorescence ratio came out at 1.13 ± 0.24. As for TGTCGGGCAG, the figure is 0.9843 ± 0.0038; as for TGTCGGTAAT, 1.03 ± 0.022.
